# The supplement of paper PMC9112550, “Optimization of the antimicrobial peptide Bac7 by deep mutational scanning” (BMC Biology, 2022)
# Tested on: Escherichia coli TOP10
# Test: shrunken log2 fold change of peptide-encoding DNA abundance (4.5 h post-induction vs induction); higher = less antimicrobial activity (less host growth inhibition)
# Conditions: time post-induction: 4.5 h; library: site-saturation at positions 5, 18, 19, 20
# 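Also: peptides expressed intracellularly from a pBAD plasmid library in pooled LB shake-flask culture, induced with 0.3% L-arabinose, DNA abundance read by NGS, three biological replicates, DESeq2 with apeglm shrinkage.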
row,Sequence,shrunken log2 fold change
1,RRIRDRPPRLPRPRPRPQGGPRP,-0.17
2,RRIRDRPPRLPRPRPRPQGTPRP,0.165
3,RRIRDRPPRLPRPRPRPQHEPRP,-0.00197
4,RRIRDRPPRLPRPRPRPQHWPRP,0.122
5,RRIRDRPPRLPRPRPRPQIHPRP,-0.145
6,RRIRDRPPRLPRPRPRPQKQPRP,0.086
7,RRIRDRPPRLPRPRPRPQLFPRP,-0.0901
8,RRIRDRPPRLPRPRPRPQQIPRP,-0.148
9,RRIRDRPPRLPRPRPRPQRMPRP,-0.0312
10,RRIRDRPPRLPRPRPRPQRRPRP,0.255
11,RRIRDRPPRLPRPRPRPQSIPRP,0.00839
12,RRIRDRPPRLPRPRPRPQTGPRP,-0.283
13,RRIRDRPPRLPRPRPRPQVHPRP,-0.0385
14,RRIRDRPPRLPRPRPRPRAGPRP,0.741
15,RRIRDRPPRLPRPRPRPRAMPRP,-0.0837
16,RRIRDRPPRLPRPRPRPRCAPRP,0.885
17,RRIRDRPPRLPRPRPRPRCQPRP,-0.128
18,RRIRDRPPRLPRPRPRPRCRPRP,-0.0929
19,RRIRDRPPRLPRPRPRPRDSPRP,-0.153
20,RRIRDRPPRLPRPRPRPRENPRP,0.415
21,RRIRDRPPRLPRPRPRPRGTPRP,-0.217
22,RRIRDRPPRLPRPRPRPRGWPRP,1.35
23,RRIRDRPPRLPRPRPRPRHQPRP,0.0533
24,RRIRDRPPRLPRPRPRPRKTPRP,0.379
25,RRIRDRPPRLPRPRPRPRKWPRP,-0.0062

row,Sequence,shrunken log2 fold change
1,RRIRDRPPRLPRPRPRPRLIPRP,-0.189
2,RRIRDRPPRLPRPRPRPRLMPRP,0.163
3,RRIRDRPPRLPRPRPRPRMNPRP,-0.168
4,RRIRDRPPRLPRPRPRPRMRPRP,0.984
5,RRIRDRPPRLPRPRPRPRNRPRP,0.0378
6,RRIRDRPPRLPRPRPRPRPKPRP,0.548
7,RRIRDRPPRLPRPRPRPRRHPRP,0.172
8,RRIRDRPPRLPRPRPRPRVVPRP,0.11
9,RRIRDRPPRLPRPRPRPRWYPRP,-0.0526
10,RRIRDRPPRLPRPRPRPRYFPRP,0.242
11,RRIRDRPPRLPRPRPRPRYLPRP,-0.171
12,RRIRDRPPRLPRPRPRPSADPRP,0.368
13,RRIRDRPPRLPRPRPRPSCEPRP,0.042
14,RRIRDRPPRLPRPRPRPSCKPRP,-0.1
15,RRIRDRPPRLPRPRPRPSDFPRP,0.259
16,RRIRDRPPRLPRPRPRPSDKPRP,0.0657
17,RRIRDRPPRLPRPRPRPSEQPRP,0.0598
18,RRIRDRPPRLPRPRPRPSFIPRP,-0.572
19,RRIRDRPPRLPRPRPRPSFLPRP,-0.197
20,RRIRDRPPRLPRPRPRPSGLPRP,0.284
21,RRIRDRPPRLPRPRPRPSHLPRP,-0.248
22,RRIRDRPPRLPRPRPRPSIEPRP,0.089
23,RRIRDRPPRLPRPRPRPSIKPRP,-0.491
24,RRIRDRPPRLPRPRPRPSKDPRP,-0.242
25,RRIRDRPPRLPRPRPRPSSIPRP,0.0533

row,Sequence,shrunken log2 fold change
1,RRIRDRPPRLPRPRPRPSTTPRP,0.0945
2,RRIRDRPPRLPRPRPRPSVIPRP,0.0683
3,RRIRDRPPRLPRPRPRPSWCPRP,-0.0805
4,RRIRDRPPRLPRPRPRPSWPPRP,0.399
5,RRIRDRPPRLPRPRPRPTAEPRP,1.4
6,RRIRDRPPRLPRPRPRPTCDPRP,0.224
7,RRIRDRPPRLPRPRPRPTDDPRP,-0.0281
8,RRIRDRPPRLPRPRPRPTDRPRP,0.694
9,RRIRDRPPRLPRPRPRPTFAPRP,0.454
10,RRIRDRPPRLPRPRPRPTFDPRP,0.853
11,RRIRDRPPRLPRPRPRPTFVPRP,0.177
12,RRIRDRPPRLPRPRPRPTGNPRP,0.195
13,RRIRDRPPRLPRPRPRPTIKPRP,-0.295
14,RRIRDRPPRLPRPRPRPTKMPRP,0.269
15,RRIRDRPPRLPRPRPRPTMHPRP,0.61
16,RRIRDRPPRLPRPRPRPTMQPRP,0.625
17,RRIRDRPPRLPRPRPRPTPAPRP,0.551
18,RRIRDRPPRLPRPRPRPTRAPRP,0.889
19,RRIRDRPPRLPRPRPRPTRCPRP,1.35
20,RRIRDRPPRLPRPRPRPTSQPRP,0.495
21,RRIRDRPPRLPRPRPRPTTHPRP,0.313
22,RRIRDRPPRLPRPRPRPTTLPRP,0.525
23,RRIRDRPPRLPRPRPRPTYSPRP,-0.757
24,RRIRDRPPRLPRPRPRPVAAPRP,0.833
25,RRIRDRPPRLPRPRPRPVAHPRP,-0.0445
